Test results as given in PMC5024103, “Catalytic Thr or Ser Residue Modulates Structural Switches in 2-Cys Peroxiredoxin by Distinct Mechanisms” (Scientific Reports, 2016).

Tests used:
[1] = molecular target: Tsa1^T44A (S. cerevisiae) (UniProt P34760); experiment: SEC; analytical HPLC, Phenomenex BioSep-SEC-S3000, 50 uM enzyme, 100 mM Tris-HCl pH 7.4, 50 mM NaCl, 1 mL/min; samples reduced with 5 mM TCEP for 30 min at 25 C; dimers to decamer
[2] = molecular target: Tsa1^T44S (S. cerevisiae) (UniProt P34760); experiment: SEC; analytical HPLC, Phenomenex BioSep-SEC-S3000, 50 uM enzyme, 100 mM Tris-HCl pH 7.4, 50 mM NaCl, 1 mL/min; samples reduced with TCEP and then oxidised (disulfide) with 1.2 molar equivalents of H2O2 for 30 min at 25 C; dimers to decamer
[3] = molecular target: Tsa1^T44S (S. cerevisiae) (UniProt P34760); experiment: SEC; analytical HPLC, Phenomenex BioSep-SEC-S3000, 50 uM enzyme, 100 mM Tris-HCl pH 7.4, 50 mM NaCl, 1 mL/min; samples reduced with 5 mM TCEP for 30 min at 25 C; dimers to decamer
[4] = molecular target: Tsa1^WT (typical 2-Cys peroxiredoxin Tsa1 from S. cerevisiae) (S. cerevisiae) (UniProt P34760); experiment: as above
[5] = molecular target: the molecule itself; experiment: SEC; analytical HPLC, Phenomenex BioSep-SEC-S3000, 50 uM enzyme, 100 mM Tris-HCl pH 7.4, 50 mM NaCl, 1 mL/min; samples reduced with TCEP and then oxidised (disulfide) with 1.2 molar equivalents of H2O2 for 30 min at 25 C; dimers to decamer
[6] = molecular target: the molecule itself; experiment: SEC; analytical HPLC, Phenomenex BioSep-SEC-S3000, 50 uM enzyme, 100 mM Tris-HCl pH 7.4, 50 mM NaCl, 1 mL/min; samples reduced with 5 mM TCEP for 30 min at 25 C; dimers to decamer
[7] = substrate: CC(C)(OO)c1ccccc1; experiment: Trx system coupled assay, NADPH oxidation; assay type: biochemical, Saccharomyces cerevisiae; conditions: Trx1 2 μM, TrxR1 0.3 μM, NADPH 150 μM, HEPES pH 7.4, 30 °C
Source text: Trx system coupled assay, NADPH oxidation on Tsa1 (Tsa1^WT) | In the case of cumene hydroperoxide (CHP) reduction, Tsa1^WT and Tsa1^T44S also presented similar enzymatic parameters

[8] = substrate: CC(C)(OO)c1ccccc1; experiment: Trx system coupled assay, NADPH oxidation; assay type: biochemical, Saccharomyces cerevisiae; conditions: Trx1 2 μM, TrxR1 0.3 μM, NADPH 150 μM, HEPES pH 7.4, 30 °C; remark: listed apart in the source

Molecule: Tsa1^T44A (from UniProt P34760 1-196) (enzyme)
- stoichiometry N [1]: 10

Molecule: Tsa1^T44S (from UniProt P34760 1-196) (enzyme)
- stoichiometry N [2]: 10
- stoichiometry N [3]: 10

Molecule: Tsa1^WT (typical 2-Cys peroxiredoxin Tsa1 from S. cerevisiae) (from UniProt P34760 1-196) (enzyme)
- stoichiometry N [4]: 10

B1: Tsa2^WT (typical 2-Cys peroxiredoxin Tsa2 from S. cerevisiae) (enzyme)
chain: MVAEVQKQAPPFKKTAVVDGIFEEISLEKYKGKYVVLAFVPLAFSFVCPTEIVAFSDAAKKFEDQGAQVLFASTDSEYSLLAWTNLPRKDGGLGPVKVPLLADKNHSLSRDYGVLIEKEGIALRGLFIIDPKGIIRHITINDLSVGRNVNEALRLVEGFQWTDKNGTVLPCNWTPGAATIKPDVKDSKEYFKNANN
notes: Tsa2, typical 2-Cys peroxiredoxin of Saccharomyces cerevisiae (86% identity with Tsa1; Ser45 in place of Thr44 of Tsa1); Decamer in both redox states by SEC; source: E. coli BL21 (DE3), pPROEx/tsa2, purified (IMAC on HisTrap, PD10 desalting); not shown: His tag (from the vector pPROEx); copies: 10
- stoichiometry N [5]: 10
- stoichiometry N [6]: 10

B2: Tsa1 (Tsa1^WT) (Saccharomyces cerevisiae S288C) (protein)
chain: MVAQVQKQAPTFKKTAVVDGVFDEVSLDKYKGKYVVLAFIPLAFTFVCPTEIIAFSEAAKKFEEQGAQVLFASTDSEYSLLAWTNIPRKEGGLGPINIPLLADTNHSLSRDYGVLIEEEGVALRGLFIIDPKGVIRHITINDLPVGRNVDEALRLVEAFQWTDKNGTVLPCNWTPGAATIKPTVEDSKEYFEAANK
notes: pET15b/Tsa1, His-tagged (HisTrap IMAC); homodimer ~48 kDa, decamer ~240 kDa
- Km [7]: 8.80 ± 0.05 µM
- kcat [7]: 0.7 ± 0.1 s⁻¹
- kcat/Km [7]: 82000 ± 11000 M⁻¹ s⁻¹

B3: Tsa1 (Tsa1^WT) (Saccharomyces cerevisiae S288C; T45A) (protein)
chain: MVAQVQKQAPTFKKTAVVDGVFDEVSLDKYKGKYVVLAFIPLAFAFVCPTEIIAFSEAAKKFEEQGAQVLFASTDSEYSLLAWTNIPRKEGGLGPINIPLLADTNHSLSRDYGVLIEEEGVALRGLFIIDPKGVIRHITINDLPVGRNVDEALRLVEAFQWTDKNGTVLPCNWTPGAATIKPTVEDSKEYFEAANK
notes: as for B2
- Km [8]: 300 µM

B4: Tsa1^S78D (enzyme)
chain: MVAQVQKQAPTFKKTAVVDGVFDEVSLDKYKGKYVVLAFIPLAFTFVCPTEIIAFSEAAKKFEEQGAQVLFASTDSEYDLLAWTNIPRKEGGLGPINIPLLADTNHSLSRDYGVLIEEEGVALRGLFIIDPKGVIRHITINDLPVGRNVDEALRLVEAFQWTDKNGTVLPCNWTPGAATIKPTVEDSKEYFEAANK
- stoichiometry N [5]: 2
- stoichiometry N [6]: 2

B5: Tsa1^T44V (enzyme)
chain: MVAQVQKQAPTFKKTAVVDGVFDEVSLDKYKGKYVVLAFIPLAFVFVCPTEIIAFSEAAKKFEEQGAQVLFASTDSEYSLLAWTNIPRKEGGLGPINIPLLADTNHSLSRDYGVLIEEEGVALRGLFIIDPKGVIRHITINDLPVGRNVDEALRLVEAFQWTDKNGTVLPCNWTPGAATIKPTVEDSKEYFEAANK
- stoichiometry N [5]: 2

B6: Tsa1 (Tsa1^WT) (Saccharomyces cerevisiae S288C; T45S) (protein)
chain: MVAQVQKQAPTFKKTAVVDGVFDEVSLDKYKGKYVVLAFIPLAFSFVCPTEIIAFSEAAKKFEEQGAQVLFASTDSEYSLLAWTNIPRKEGGLGPINIPLLADTNHSLSRDYGVLIEEEGVALRGLFIIDPKGVIRHITINDLPVGRNVDEALRLVEAFQWTDKNGTVLPCNWTPGAATIKPTVEDSKEYFEAANK
notes: as for B2
- Km [7]: 9.9 ± 1.2 µM
- kcat [7]: 0.7 ± 0.1 s⁻¹
- kcat/Km [7]: 75000 ± 9000 M⁻¹ s⁻¹

B7: Tsa1^Y77A (enzyme)
chain: MVAQVQKQAPTFKKTAVVDGVFDEVSLDKYKGKYVVLAFIPLAFTFVCPTEIIAFSEAAKKFEEQGAQVLFASTDSEASLLAWTNIPRKEGGLGPINIPLLADTNHSLSRDYGVLIEEEGVALRGLFIIDPKGVIRHITINDLPVGRNVDEALRLVEAFQWTDKNGTVLPCNWTPGAATIKPTVEDSKEYFEAANK
- stoichiometry N [5]: 2
- stoichiometry N [6]: 2
